According to article PMC5800842:

Legend:
[1] = biological target: LGR4 (human (endogenous in HAP1)) (UniProt Q9BXB1)

Binder	EC50 of potentiation of WNT reporter fluorescence in WT HAP1-7TGP cells with 1.43% WNT3A CM, fold over wild-type RSPO3 (ZNRF3/RNF43) [fold]	EC50 of potentiation of WNT reporter fluorescence in WT HAP1-7TGP cells with 1.43% WNT3A CM, fold over wild-type RSPO3 [1] [fold]	efficacy (maximum WNT reporter activity) in WT HAP1-7TGP cells with 1.43% WNT3A CM, reduction against wild-type RSPO3 [1] [% reduction]
HA-RSPO3 R67A/Q72A-Tev-Fc-Avi-1D4 (Fc fusion) QNASRGRRQRRMHPNVSQGCQGGCATCSDYNGCLSCKPRLFFALEAIGMKAIGVCLSSCPSGYYGTRYPDINKCTKCKADCDTCFNKNFCTKCKSGFYLHLGKCLDNCPEGLEANNHTMECVSIVHCEVSEWNPWSPCTKKGKTCGFKRGTETRVREIIQHPSAKGNLCPPTNETRKCTVQRKKCQKGERGKKGRERKRKKPNKGESKEAIPDSKSLESSKEIPEQRENKQQQKKRKVQDKQKSVSVSTVH	21		
HA-RSPO3 F106E/F110E-Tev-Fc-Avi-1D4 (Fc fusion) QNASRGRRQRRMHPNVSQGCQGGCATCSDYNGCLSCKPRLFFALERIGMKQIGVCLSSCPSGYYGTRYPDINKCTKCKADCDTCENKNECTKCKSGFYLHLGKCLDNCPEGLEANNHTMECVSIVHCEVSEWNPWSPCTKKGKTCGFKRGTETRVREIIQHPSAKGNLCPPTNETRKCTVQRKKCQKGERGKKGRERKRKKPNKGESKEAIPDSKSLESSKEIPEQRENKQQQKKRKVQDKQKSVSVSTVH		2.9	48
